These results are taken from PMC4791640.

The series deals with T1, TON_1525 wild-type (putative transcriptional regulator) (Thermococcus onnurineus NA1) (UniProt B6YTS4).
T1 sequence: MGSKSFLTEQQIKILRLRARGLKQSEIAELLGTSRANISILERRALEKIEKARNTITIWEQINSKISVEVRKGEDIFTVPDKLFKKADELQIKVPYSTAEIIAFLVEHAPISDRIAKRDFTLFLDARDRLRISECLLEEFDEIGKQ
In words: EMSA. To be noted: EMSA: 100 nM DNA, 20 mM Tris-HCl, 200 mM KCl, 1 mM EDTA, 5% glycerol, pH 7.5, 80 C for 10 min; 5% native PAGE.

Regarding “GAGAGTTTTACTGTCTCTAAATGAAAGGTTCTAATACGGTGGATCGAATAATTTCTTGCGTTTTTATCCGGATCGCCGAACACGATTCCATCTTAAAATCTTTTTGTTTACATTATACGAGGTGATCAACAATGCCAGCTTTTTCCGGTT (double strand) [CODH promoter 150-bp probe]”, the binding result is recorded as “binds”.
